{"source": "patent US20210040209A1", "about": "(Janssen / Centocor, published 2021)", "binders": {"B1": {"name": "PS3B27 PSMAxCD3 bispecific antibody (PSMB127 x CD3B219) (bispecific antibody, human IgG4 S228P, kappa, lambda, F234A L235A)", "heavy 1": "not shown", "light 1": "not shown", "heavy 2": "EVQLVESGGGLVQPGGSLRLSCAASGFTFNTYAMNWVRQAPGKGLEWVARIRSKYNNYATYYAASVKGRFTISRDDSKNSLYLQMNSLKTEDTAVYYCARHGNFGNSYVSWFAYWGQGTLVTVSSASTKGPSVFPLAPCSRSTSESTAALGCLVKDYFPEPVTVSWNSGALTSGVHTFPAVLQSSGLYSLSSVVTVPSSSLGTKTYTCNVDHKPSNTKVDKRVESKYGPPCPPCPAPEAAGGPSVFLFPPKPKDTLMISRTPEVTCVVVDVSQEDPEVQFNWYVDGVEVHNAKTKPREEQFNSTYRVVSVLTVLHQDWLNGKEYKCKVSNKGLPSSIEKTISKAKGQPREPQVYTLPPSQEEMTKNQVSLTCLVKGFYPSDIAVEWESNGQPENNYKTTPPVLDSDGSFLLYSKLTVDKSRWQEGNVFSCSVMHEALHNHYTQKSLSLSLGK", "light 2": "QTVVTQEPSLTVSPGGTVTLTCRSSTGAVTTSNYANWVQQKPGQAPRGLIGGTNKRAPGTPARFSGSLLGGKAALTLSGVQPEDEAEYYCALWYSNLWVFGGGTKLTVLGQPKAAPSVTLFPPSSEELQANKATLVCLISDFYPGAVTVAWKADSSPVKAGVETTTPSKQSNNKYAASSYLSLTPEQWKSHRSYSCQVTHEGSTVEKTVAPTECS", "notes": "also called the study drug"}}, "key": {"[1]": {"biological_target": "human PSMA on cells (LNCaP, C4-2B, LNCaP AR, 22RV1 prostate tumor cell lines; human prostate tissue) (human, UniProt Q04609 1-750)", "sequence (Q04609 whole entry)": "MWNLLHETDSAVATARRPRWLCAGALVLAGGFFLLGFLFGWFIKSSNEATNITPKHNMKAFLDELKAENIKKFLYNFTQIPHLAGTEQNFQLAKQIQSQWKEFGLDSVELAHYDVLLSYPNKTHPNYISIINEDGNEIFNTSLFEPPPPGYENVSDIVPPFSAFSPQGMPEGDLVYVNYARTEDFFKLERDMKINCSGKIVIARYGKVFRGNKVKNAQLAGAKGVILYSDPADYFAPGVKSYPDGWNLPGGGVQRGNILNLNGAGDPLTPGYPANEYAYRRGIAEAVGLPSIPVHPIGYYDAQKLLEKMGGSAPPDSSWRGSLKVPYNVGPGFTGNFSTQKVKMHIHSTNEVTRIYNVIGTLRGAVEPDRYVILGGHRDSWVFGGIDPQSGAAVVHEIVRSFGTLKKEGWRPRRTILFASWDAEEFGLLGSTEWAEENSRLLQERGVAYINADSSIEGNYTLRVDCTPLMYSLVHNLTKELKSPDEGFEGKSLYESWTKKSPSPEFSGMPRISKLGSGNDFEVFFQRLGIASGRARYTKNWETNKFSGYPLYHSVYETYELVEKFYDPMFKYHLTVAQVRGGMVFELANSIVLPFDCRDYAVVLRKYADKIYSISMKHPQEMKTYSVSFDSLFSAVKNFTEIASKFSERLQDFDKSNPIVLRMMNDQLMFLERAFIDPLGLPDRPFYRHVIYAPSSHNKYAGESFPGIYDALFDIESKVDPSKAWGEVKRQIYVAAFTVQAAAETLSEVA", "assay": "cell-based or functional assay"}, "[2]": {"biological_target": "T1, human CD3 epsilon on cells (primary human T cells; mononuclear cells of human tissue) (human, UniProt P07766 23-207)", "T1 construct": "Part of the TCR/CD3 complex on T cells; also called CD3ε; cell-surface CD3ε", "T1 sequence (P07766 23-207 limits assumed)": "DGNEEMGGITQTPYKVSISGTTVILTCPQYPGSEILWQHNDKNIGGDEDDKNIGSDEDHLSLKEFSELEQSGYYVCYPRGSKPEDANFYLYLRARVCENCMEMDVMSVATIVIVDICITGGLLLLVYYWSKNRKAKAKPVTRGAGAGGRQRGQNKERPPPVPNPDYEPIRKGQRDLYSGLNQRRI", "assay": "tissue cross-reactivity staining of cryosections of normal human tissues", "procedure": "A GLP cross-reactivity study was conducted in cryosections of normal human tissues with the study drug and its anti-PSMA parental (bivalent) antibody (positive control). No unanticipated tissue cross-reactivity of the study drug was observed. Membrane staining of epithelial cells and staining of extracellular material in the prostate with both the study drug and the anti-PSMA parental antibody was anticipated due to PSMA expression in these tissues. Staining of mononuclear cells with the study drug only was expected based on the expression of CD3ε on T cells."}}, "data": [{"binder": "B1", "values": [{"measurement": "CD25 expression on T cells co-cultured with C4-2B cells, median EC50", "setting": "[1]", "value": 60, "unit": "pM"}, {"measurement": "T cell dependent cytotoxicity of C4-2B cells, median EC50", "setting": "[1]", "value": 80, "unit": "pM"}, {"measurement": "binding result", "setting": "[2]", "value": "binds"}]}]}
